Here are results for 32 molecules from patent US20260049138A1 (Chugai, published 2026).

Where a chain is given by its changes, count along the chain named. Names and notes keep the numbering of the source.

The chains are these.
B1: GLS3000 R24Y one-arm antibody (antibody, human IgG1, kappa, L234A L235A, N297A, name in Kabat numbering)
heavy: QVQLVESGGGVVQPGRSLRLSCAASGFTFSNAWMHWVRQAPGKGLEWVAQIKAKSNNYATYYAESVKGRFTISRDDSKNSLYLQMNSLKTEDTAVYYCRYVHYGAYYGVDAWGQGTTVTVSSASTKGPSVFPLAPSSKSTSGGTAALGCLVKDYFPEPVTVSWNSGALTSGVHTFPAVLQSSGLYSLSSVVTVPSSSLGTQTYICNVNHKPSNTKVDKKVEPKSCDKTHTCPPCPAPEAAGGPSVFLFPPKPKDTLMISRTPEVTCVVVDVSHEDPEVKFNWYVDGVEVHNAKTKPREEQYASTYRVVSVLTVLHQDWLNGKEYKCKVSNKALPAPIEKTISKAKGQPREPQVYTLPPSRCELTKNQVSLSCAVKGFYPSDIAVEWESNGQPENNYKTTPPVLDSDGSFFLVSKLTVDKSRWQQGNVFSCSVMHEALHNHYTQKSLSLSPDYKDDDDK
chain: EPKSSDKTHTCPPCPAPELLGGPSVFLFPPKPKDTLMISRTPEVTCVVVDVSHEDPEVKFNWYVDGVEVHNAKTKPREEQYNSTYRVVSVLTVLHQDWLNGKEYKCKVSNKALPAPIEKTISKAKGQPREPQVCTLPPSRDELTKNQVSLWCLVKGFYPSDIAVEWESNGQPENNYKTTPPVLDSDGSFFLYSKLTVDKSRWQQGNVFSCSVMHEALHNRYTQKSLSLSP
light: DIVMTQSPLSLPVTPGEPASISCYSSQSLVHSNRNTYLHWYQQKPGQAPRLLIYKVSNRFSGVPDRFSGSGSGTDFTLKISRVEAEDVGVYYCGQGTQVPYTFGQGTKLEIKRTVAAPSVFIFPPSDEQLKSGTASVVCLLNNFYPREAKVQWKVDNALQSGNSQESVTEQDSKDSTYSLSSTLTLSKADYEKHKVYACEVTHQGLSSPVTKSFNRGEC
B2: GLS3000 R29S one-arm antibody (antibody, human IgG1, kappa, L234A L235A, N297A, name in Kabat numbering)
heavy: B1 heavy
chain: B1 chain
light: B1 light with Y24R, R34S
B3: GLS3000 S26D one-arm antibody (antibody, human IgG1, kappa, L234A L235A, N297A, name in Kabat numbering)
heavy: B1 heavy
chain: B1 chain
light: B1 light with Y24R, S26D
B4: GLS3000 R77S one-arm antibody (antibody, human IgG1, kappa, L234A L235A, N297A, name in Kabat numbering)
heavy: B1 heavy
chain: B1 chain
light: B1 light with Y24R, R82S
B5: GLS3000 S26E one-arm antibody (antibody, human IgG1, kappa, L234A L235A, N297A, name in Kabat numbering)
heavy: B1 heavy
chain: B1 chain
light: B1 light with Y24R, S26E
B6: GLS3000 R54Q one-arm antibody (antibody, human IgG1, kappa, L234A L235A, N297A, name in Kabat numbering)
heavy: B1 heavy
chain: B1 chain
light: B1 light with Y24R, R59Q
B7: GLS3000 S25A one-arm antibody (antibody, human IgG1, kappa, L234A L235A, N297A, name in Kabat numbering)
heavy: B1 heavy
chain: B1 chain
light: B1 light with Y24R, S25A
B8: GLS3000 S25T one-arm antibody (antibody, human IgG1, kappa, L234A L235A, N297A, name in Kabat numbering)
heavy: B1 heavy
chain: B1 chain
light: B1 light with Y24R, S25T
B9: GLS3000 R54P one-arm antibody (antibody, human IgG1, kappa, L234A L235A, N297A, name in Kabat numbering)
heavy: B1 heavy
chain: B1 chain
light: B1 light with Y24R, R59P
B10: GLS3000 S25E one-arm antibody (antibody, human IgG1, kappa, L234A L235A, N297A, name in Kabat numbering)
heavy: B1 heavy
chain: B1 chain
light: B1 light with Y24R, S25E
B11: GLS3000 R29P one-arm antibody (antibody, human IgG1, kappa, L234A L235A, N297A, name in Kabat numbering)
heavy: B1 heavy
chain: B1 chain
light: B1 light with Y24R, R34P
B12: GLS3000 R54T one-arm antibody (antibody, human IgG1, kappa, L234A L235A, N297A, name in Kabat numbering)
heavy: B1 heavy
chain: B1 chain
light: B1 light with Y24R, R59T
B13: GLS3000 R54G one-arm antibody (antibody, human IgG1, kappa, L234A L235A, N297A, name in Kabat numbering)
heavy: B1 heavy
chain: B1 chain
light: B1 light with Y24R, R59G
B14: GLS3000 R54W one-arm antibody (antibody, human IgG1, kappa, L234A L235A, N297A, name in Kabat numbering)
heavy: B1 heavy
chain: B1 chain
light: B1 light with Y24R, R59W
B15: GLS3000 R29D one-arm antibody (antibody, human IgG1, kappa, L234A L235A, N297A, name in Kabat numbering)
heavy: B1 heavy
chain: B1 chain
light: B1 light with Y24R, R34D
B16: GLS3000 R29I one-arm antibody (antibody, human IgG1, kappa, L234A L235A, N297A, name in Kabat numbering)
heavy: B1 heavy
chain: B1 chain
light: B1 light with Y24R, R34I
B17: GLS3000 R54E one-arm antibody (antibody, human IgG1, kappa, L234A L235A, N297A, name in Kabat numbering)
heavy: B1 heavy
chain: B1 chain
light: B1 light with Y24R, R59E
B18: GLS3000 R29T one-arm antibody (antibody, human IgG1, kappa, L234A L235A, N297A, name in Kabat numbering)
heavy: B1 heavy
chain: B1 chain
light: B1 light with Y24R, R34T
B19: GLS3000 S25V one-arm antibody (antibody, human IgG1, kappa, L234A L235A, N297A, name in Kabat numbering)
heavy: B1 heavy
chain: B1 chain
light: B1 light with Y24R, S25V
B20: GLS3000 S25M one-arm antibody (antibody, human IgG1, kappa, L234A L235A, N297A, name in Kabat numbering)
heavy: B1 heavy
chain: B1 chain
light: B1 light with Y24R, S25M
B21: GLS3000 S25I one-arm antibody (antibody, human IgG1, kappa, L234A L235A, N297A, name in Kabat numbering)
heavy: B1 heavy
chain: B1 chain
light: B1 light with Y24R, S25I
B22: GLS3000 R29V one-arm antibody (antibody, human IgG1, kappa, L234A L235A, N297A, name in Kabat numbering)
heavy: B1 heavy
chain: B1 chain
light: B1 light with Y24R, R34V
B23: GLS3000 R29A one-arm antibody (antibody, human IgG1, kappa, L234A L235A, N297A, name in Kabat numbering)
heavy: B1 heavy
chain: B1 chain
light: B1 light with Y24R, R34A
B24: GLS3000 S25P one-arm antibody (antibody, human IgG1, kappa, L234A L235A, N297A, name in Kabat numbering)
heavy: B1 heavy
chain: B1 chain
light: B1 light with Y24R, S25P
B25: GLS3000 S25D one-arm antibody (antibody, human IgG1, kappa, L234A L235A, N297A, name in Kabat numbering)
heavy: B1 heavy
chain: B1 chain
light: B1 light with Y24R, S25D
B26: GLS3000 R29G one-arm antibody (antibody, human IgG1, kappa, L234A L235A, N297A, name in Kabat numbering)
heavy: B1 heavy
chain: B1 chain
light: B1 light with Y24R, R34G
B27: GLS3000 S25L one-arm antibody (antibody, human IgG1, kappa, L234A L235A, N297A, name in Kabat numbering)
heavy: B1 heavy
chain: B1 chain
light: B1 light with Y24R, S25L
B28: GLS3000 R29L one-arm antibody (antibody, human IgG1, kappa, L234A L235A, N297A, name in Kabat numbering)
heavy: B1 heavy
chain: B1 chain
light: B1 light with Y24R, R34L
B29: GLS3000 R54S one-arm antibody (antibody, human IgG1, kappa, L234A L235A, N297A, name in Kabat numbering)
heavy: B1 heavy
chain: B1 chain
light: B1 light with Y24R, R59S
B30: GLS3000 R54A one-arm antibody (antibody, human IgG1, kappa, L234A L235A, N297A, name in Kabat numbering)
heavy: B1 heavy
chain: B1 chain
light: B1 light with Y24R, R59A
B31: GLS3000 R29Y one-arm antibody (antibody, human IgG1, kappa, L234A L235A, N297A, name in Kabat numbering)
heavy: B1 heavy
chain: B1 chain
light: B1 light with Y24R, R34Y
B32: GLS3000 R54D one-arm antibody (antibody, human IgG1, kappa, L234A L235A, N297A, name in Kabat numbering)
heavy: B1 heavy
chain: B1 chain
light: B1 light with Y24R, R59D

This assay deals with T1, CD3ε homodimer protein (human, UniProt P07766 23-126, limits assumed).
T1 construct: also called CD3 (CD3ε)
T1 sequence (P07766 23-126 limits assumed): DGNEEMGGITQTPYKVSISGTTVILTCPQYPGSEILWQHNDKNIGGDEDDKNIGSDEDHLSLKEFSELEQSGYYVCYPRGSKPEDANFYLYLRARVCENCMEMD
Briefly: SPR Biacore T200, CD3ε homodimer on chip.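 Also: Light-chain single-residue variant antibodies injected over amine-coupled CD3ε homodimer on a CM4 chip at 25 °C, bound amount divided by that of the GLS3000-containing antibody.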
Method: Each one-amino acid altered form constructed, expressed, and purified in the paragraph (6-2) was evaluated using Biacore T200 (GE Healthcare Japan Corp.). An appropriate amount of CD3ε homodimer protein was immobilized onto Sensor chip CM4 (GE Healthcare Japan Corp.) by the amine coupling method. Then, the antibody having an appropriate concentration was injected thereto as an analyte and allowed to interact with the CD3ε homodimer protein on the sensor chip. Then, the sensor chip was regenerated by the injection of 10 mmol/L glycine-HCl (pH 1.5). The assay was conducted at 25° C., and HBS-EP+ (GE Healthcare Japan Corp.) was used as a running buffer. […] Each parameter was calculated using Biacore T200 Evaluation Software (GE Healthcare Japan Corp.).
Specifically, when the amount of the GLS3000-containing antibody bound was defined as X and the amount of the L chain one-amino acid altered form bound was defined as Y, a value of Z (ratio of amounts bound)=Y/X was used.
With B1, the “ratio of amount bound vs unaltered GLS3000” value (from here on “ratio of amount bound”) worked out at 0.87.
With B2 the figure was 0.68; with B3, 0.86.
As to B4, the “ratio of amount bound” value was 0.92.
With B5 the figure was 0.74.
The figure for B6 is 0.68.
With B7 the figure was 0.92; with B8, 0.83.
For B9, the “ratio of amount bound” value came to 0.84.
With B10 the figure was 0.21; with B11, 0.31; with B12, 0.65.
For the molecule B13, the “ratio of amount bound” value was 0.67.
The figure for B14 is 0.78; for B15 it is 0.41; for B16 it is 0.37.
The figure for B17 is 0.58; for B18 it is 0.63; for B19 it is 0.73.
The figure for B20 is 0.31.
In the case of B21, the “ratio of amount bound” value came out at 0.53.
B22: the “ratio of amount bound” value amounted to 0.34.
The figure for B23 is 0.63.
The figure for B24 is 1.01; for B25 it is 0.18.
The figure for B26 is 0.67; for B27 it is 0.24.
As for B28, the “ratio of amount bound” value was 0.56.
The figure for B29 is 0.79; for B30 it is 0.69.
With B31 the figure was 0.69.
With B32 the figure was 0.36.
